These results are taken from PMC7863765.

Experiment [1] addresses phosphorylated SARS-CoV-2 N construct pN.1-211 (SARS-CoV-2) (UniProt P0DTC9). The experiment can be described thus: SEC; observed qualitatively; Figure 6(C) and data not shown. In general terms: In gel filtration, larger molecules generally elute earlier.
For experiment [2], the target named is phosphorylated SARS-CoV-2 N construct pN.1-238 (SARS-CoV-2) (UniProt P0DTC9). The experiment is described as follows: SEC-MALS.

“untagged full-length human 14-3-3γ (from UniProt P61981 1-247) (natural protein)” registered a stoichiometry N (14-3-3γ chains per pN.1-211 chain (2:1)) in experiment [1] of 2. The stoichiometry N (14-3-3γ chains per pN.1-238 chain (2:1)) in experiment [2] turned out to be 2.
